Data from article PMC10704371.

Molecular target: T1, N-terminal DNA-binding domain (2-241) of S. pombe Fep1, 6xHis-tagged (S. pombe) (UniProt Q10134)
T1 sequence: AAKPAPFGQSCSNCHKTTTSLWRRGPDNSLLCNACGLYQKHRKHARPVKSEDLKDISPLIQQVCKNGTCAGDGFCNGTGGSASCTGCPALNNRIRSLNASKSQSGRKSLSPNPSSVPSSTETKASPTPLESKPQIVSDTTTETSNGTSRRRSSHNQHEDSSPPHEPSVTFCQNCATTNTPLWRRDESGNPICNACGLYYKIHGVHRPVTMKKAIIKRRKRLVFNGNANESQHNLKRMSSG

- Kex of [2Fe-2S] cluster transfer from [2Fe-2S],Zn-Fep1-DBD to apo-Grx4 (CD-monitored titration, 5 mM GSH): 5.3
- Kex of [2Fe-2S] cluster transfer from [2Fe-2S],Zn-Fep1-DBD to apo-Grx4 added as a 1:1 mixture with apo-Fra2 (CD-monitored titration, 5 mM GSH): 36.1
B1: Schizosaccharomyces pombe monothiol glutaredoxin Grx4, full length, 6xHis-tagged (natural protein)
chain: MSVEITFVEQFQEILQNGKEQIILLNFYAPWAAPCKQMNQVFDQFAKDTKNAVFLKIEAEKFSDIAESFDVNAVPLFVLIHGAKVLARISGANPQKLKAAIDEYIQPLISQISSTNASVETQVNSVQTTNTTSNTSKAPNGLDSELNERLSTLTNAHNVMLFLKGTPSEPACGFSRKLVGLLREQNVQYGFFNILADDSVRQGLKVFSDWPTFPQLYIKGEFVGGLDIVSEMIENGELQEMLPN
